Where a chain is given by its changes, count along the chain named.
B1: DBE WT probe (dsDNA)
DNA 1: CTCACCGCCATTCATGAAGGGGTGGAGCCTGCCTG
DNA 2: CAGGCAGGCTCCACCCCTTCATGAATGGCGGTGAG
B2: DBE MUT probe (dsDNA)
DNA 1: B1 DNA 1 with A10G, T11C, T12C
DNA 2: B1 DNA 2 with A24G, A25G, T26C

Columns and labels:
GST-YY1 [1] = biological target: T1, GST-YY1 (UniProt P25490 P25490:1-414); assay: EMSA; 50 mM KCl, pH 8, poly(dI-dC), on ice; details: tags: GST fusion, expressed in E. coli; label: 32P end
Method: (§1) The Kpnl-D4Z4 unit plasmid, used to generate EMSA probes for the experiments shown in FIGS. 2A-2C, was kindly provided by L. Felicetti. For the EMSA experiments shown in FIG. 4, oligonucleotide probes were prepared by end-labeling double-stranded oligonucleotides covering the region of the minimal binding site. The sequences of the oligonucleotides were as follows: WT, 5′-[…]-3′ (SEQ ID NO:1); MUT, 5′-CTCACCGCCgcc[…]-3′ (SEQ ID NO:2) (mutated nucleotides are shown in italics). DNA binding reactions were carried out in 20 μl of 10 mM HEPES (pH 8), 10% glycerol, 50 mM KCl, 0.1 mM EDTA, 0.25 mM DTT, 0.1 mg/ml poly (dl-dC), 0.1 mg/ml bovine serum albumin, 20,000 cpm of radiolabeled probe. The samples were incubated for 30 minutes on ice in the presence of the indicated nuclear extract or protein fraction. For competition assays, unlabeled probes were added to the reaction mixture at the same time as the labeled probe. For supershift assays, a binding reaction was assembled in the absence of radiolabeled probe. Antibodies were added to the binding reaction and the samples were incubated 15 minutes at room temperature. Radiolabled probe was added and the samples were incubated for additional 30 minutes on ice. Reaction mixtures were loaded in the cold room onto 6% native polyacrylamide gels containing 0.5×Tris-borate-EDTA (TBE) that had been preelectrophoresed for 30 minutes at 20 mA. […]

GST = GST (UniProt P08515 P08515:2-218); assay: EMSA; GST alone control; details: tags: GST alone, label: 32P end
Sequence of GST (P08515 2-218, one chain of several): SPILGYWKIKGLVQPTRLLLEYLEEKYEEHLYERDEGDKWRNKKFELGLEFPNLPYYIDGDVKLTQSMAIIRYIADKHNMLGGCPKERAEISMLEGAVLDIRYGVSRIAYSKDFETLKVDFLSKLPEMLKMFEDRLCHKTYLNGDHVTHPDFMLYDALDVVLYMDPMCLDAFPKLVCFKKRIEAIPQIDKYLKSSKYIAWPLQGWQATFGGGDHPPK
Method: as §1

GST-YY1 [2] = biological target: T1, GST-YY1; assay: EMSA; YY1 core mutated; details: tags: GST fusion, expressed in E. coli; label: 32P end
Method: as §1

T1 sequence (P25490 whole entry, the tested form may be a part, one chain of several): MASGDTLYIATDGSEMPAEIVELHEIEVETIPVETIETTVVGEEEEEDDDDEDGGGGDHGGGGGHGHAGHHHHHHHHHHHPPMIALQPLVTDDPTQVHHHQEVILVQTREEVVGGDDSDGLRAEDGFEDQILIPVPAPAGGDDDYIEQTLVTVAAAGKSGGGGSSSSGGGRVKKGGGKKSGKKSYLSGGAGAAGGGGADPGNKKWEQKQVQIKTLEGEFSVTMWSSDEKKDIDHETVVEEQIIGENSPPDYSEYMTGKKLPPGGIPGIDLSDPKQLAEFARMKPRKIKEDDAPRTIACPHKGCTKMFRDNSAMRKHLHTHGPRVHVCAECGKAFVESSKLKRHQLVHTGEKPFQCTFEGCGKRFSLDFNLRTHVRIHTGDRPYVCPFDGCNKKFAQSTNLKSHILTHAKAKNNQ

| Binder | binding result (GST-YY1 [1]) | binding result (GST) | binding result (GST-YY1 [2]) |
| --- | --- | --- | --- |
| B1 | binds | no binding | – |
| B2 | – | – | no binding |
